Data published in patent publication US20260125711, “RNA-GUIDED NUCLEASES AND ACTIVE FRAGMENTS AND VARIANTS THEREOF AND METHODS OF USE” (Life Edit Therapeutics, Inc., published 2026).

What was measured:
Details in all cases: tags: N-terminal SV40 NLS and 3xFLAG; C-terminal nucleoplasmin NLS
[1] = target: T1, LPG10168 (Bacillus toyonensis); assay: cell_activity; PAM nnnnCC; HEK293T
T1 chain: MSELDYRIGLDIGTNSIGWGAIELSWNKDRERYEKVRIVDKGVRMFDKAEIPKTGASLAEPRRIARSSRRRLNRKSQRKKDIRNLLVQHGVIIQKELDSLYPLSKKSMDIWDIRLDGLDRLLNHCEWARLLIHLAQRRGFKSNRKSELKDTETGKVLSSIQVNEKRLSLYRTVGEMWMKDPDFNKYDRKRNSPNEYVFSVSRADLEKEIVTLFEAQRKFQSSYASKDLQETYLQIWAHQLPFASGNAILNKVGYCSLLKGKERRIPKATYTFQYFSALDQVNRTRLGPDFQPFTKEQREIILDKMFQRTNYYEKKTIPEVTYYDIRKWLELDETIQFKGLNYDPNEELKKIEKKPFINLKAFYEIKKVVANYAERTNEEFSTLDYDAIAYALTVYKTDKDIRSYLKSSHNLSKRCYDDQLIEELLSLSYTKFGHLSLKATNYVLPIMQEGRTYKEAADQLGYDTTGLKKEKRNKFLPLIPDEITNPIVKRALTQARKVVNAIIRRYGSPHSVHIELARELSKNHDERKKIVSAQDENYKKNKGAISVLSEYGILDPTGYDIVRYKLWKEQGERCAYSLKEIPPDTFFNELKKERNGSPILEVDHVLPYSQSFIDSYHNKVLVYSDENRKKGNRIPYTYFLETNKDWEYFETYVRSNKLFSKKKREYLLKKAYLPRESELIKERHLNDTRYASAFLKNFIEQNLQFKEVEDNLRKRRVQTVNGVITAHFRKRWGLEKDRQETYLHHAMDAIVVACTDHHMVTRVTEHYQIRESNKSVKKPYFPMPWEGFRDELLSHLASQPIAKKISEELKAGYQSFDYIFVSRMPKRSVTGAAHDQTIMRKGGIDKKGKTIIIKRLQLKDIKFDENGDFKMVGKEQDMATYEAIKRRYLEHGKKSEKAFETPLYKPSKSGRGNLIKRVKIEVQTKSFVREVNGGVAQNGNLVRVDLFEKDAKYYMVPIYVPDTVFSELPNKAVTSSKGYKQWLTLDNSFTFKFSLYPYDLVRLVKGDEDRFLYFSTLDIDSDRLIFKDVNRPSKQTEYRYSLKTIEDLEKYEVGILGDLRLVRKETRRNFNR
Method: (§1) Several of the constructs described above were introduced into mammalian cells. One day prior to transfection, 1×10⁵ HEK293T cells (Sigma) were plated in 24-well dishes in Dulbecco's modified Eagle medium (DMEM) plus 10% (vol/vol) fetal bovine serum (Gibco) and 1% Penicillin-Streptomycin (Gibco). The next day when the cells were at 50-60% confluency, 500 ng of an RGN expression plasmid plus 500 ng of a single gRNA expression plasmid were co-transfected using 1.5 μL of Lipofectamine 3000 (Thermo Scientific) per well, following the manufacturer's instructions. After 48 hours of growth, total genomic DNA was harvested using a genomic DNA isolation kit (Machery-Nagel) according to the manufacturer's instructions.
(§2) Additionally, products from PCR #2 containing Illumina overhang sequences underwent library preparation following the Illumina 16S Metagenomic Sequencing Library protocol. Deep sequencing was performed on an Illumina Mi-Seq platform by a service provider (MOGene). Typically, 200,000 of 250 bp paired-end reads (2×100,000 reads) are generated per amplicon. […] Output alignments were hand-curated to confirm insertion and deletion sites as well as identify microhomology sites at the recombination sites. All experiments were performed in human cells.

[2] = target: T2, LPG10204; assay: cell_activity; PAM SEQ ID NOs 146, 147; HEK293T
T2 chain: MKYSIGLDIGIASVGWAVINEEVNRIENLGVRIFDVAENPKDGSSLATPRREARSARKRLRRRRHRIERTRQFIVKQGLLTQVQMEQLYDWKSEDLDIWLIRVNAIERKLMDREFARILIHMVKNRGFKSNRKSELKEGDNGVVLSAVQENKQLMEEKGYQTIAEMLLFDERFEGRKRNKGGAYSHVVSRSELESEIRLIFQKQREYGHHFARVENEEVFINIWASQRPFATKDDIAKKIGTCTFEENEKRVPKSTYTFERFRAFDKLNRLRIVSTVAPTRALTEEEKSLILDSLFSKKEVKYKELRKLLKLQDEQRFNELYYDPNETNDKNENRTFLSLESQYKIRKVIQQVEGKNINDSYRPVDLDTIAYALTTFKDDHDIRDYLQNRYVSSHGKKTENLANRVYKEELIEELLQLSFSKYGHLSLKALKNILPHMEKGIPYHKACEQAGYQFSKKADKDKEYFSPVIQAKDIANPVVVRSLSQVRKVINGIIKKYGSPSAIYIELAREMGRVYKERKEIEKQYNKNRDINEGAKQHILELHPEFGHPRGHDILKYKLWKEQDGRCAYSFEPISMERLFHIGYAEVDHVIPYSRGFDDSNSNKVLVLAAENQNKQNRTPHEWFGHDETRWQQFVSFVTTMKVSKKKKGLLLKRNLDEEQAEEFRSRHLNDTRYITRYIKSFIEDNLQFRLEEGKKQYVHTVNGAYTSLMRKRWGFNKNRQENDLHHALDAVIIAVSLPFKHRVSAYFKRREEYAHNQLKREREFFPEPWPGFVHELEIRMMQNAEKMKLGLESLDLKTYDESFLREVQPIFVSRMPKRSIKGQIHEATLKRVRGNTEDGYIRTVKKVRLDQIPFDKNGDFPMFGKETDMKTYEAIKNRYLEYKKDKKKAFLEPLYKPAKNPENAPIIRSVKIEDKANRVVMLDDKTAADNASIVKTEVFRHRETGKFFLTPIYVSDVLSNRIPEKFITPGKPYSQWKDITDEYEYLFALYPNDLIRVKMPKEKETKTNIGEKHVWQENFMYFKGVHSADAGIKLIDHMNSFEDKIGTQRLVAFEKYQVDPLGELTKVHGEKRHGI
Method: (§3) Guide RNAs targeting several genes were designed for robustness testing of multiple RGNs in HEK293T cells by plasmid delivery. These guides were tested under optimal editing conditions for HEK293T cells in a 96-well plate which involved seeding 10,000-15,000 cells on day 1, lipofection using Lipofectamine 3000 on day 2, and genomic DNA extraction on day 4. […] Then, 0.3 μl of Lipofectamine 3000 diluted in Opti-MEM was added to the plasmid mixture and incubated for 15 mins before adding to cells.

[3] = target: T3, LPG10208; assay: cell_activity; PAM SEQ ID NOs 146, 147; HEK293T
T3 chain: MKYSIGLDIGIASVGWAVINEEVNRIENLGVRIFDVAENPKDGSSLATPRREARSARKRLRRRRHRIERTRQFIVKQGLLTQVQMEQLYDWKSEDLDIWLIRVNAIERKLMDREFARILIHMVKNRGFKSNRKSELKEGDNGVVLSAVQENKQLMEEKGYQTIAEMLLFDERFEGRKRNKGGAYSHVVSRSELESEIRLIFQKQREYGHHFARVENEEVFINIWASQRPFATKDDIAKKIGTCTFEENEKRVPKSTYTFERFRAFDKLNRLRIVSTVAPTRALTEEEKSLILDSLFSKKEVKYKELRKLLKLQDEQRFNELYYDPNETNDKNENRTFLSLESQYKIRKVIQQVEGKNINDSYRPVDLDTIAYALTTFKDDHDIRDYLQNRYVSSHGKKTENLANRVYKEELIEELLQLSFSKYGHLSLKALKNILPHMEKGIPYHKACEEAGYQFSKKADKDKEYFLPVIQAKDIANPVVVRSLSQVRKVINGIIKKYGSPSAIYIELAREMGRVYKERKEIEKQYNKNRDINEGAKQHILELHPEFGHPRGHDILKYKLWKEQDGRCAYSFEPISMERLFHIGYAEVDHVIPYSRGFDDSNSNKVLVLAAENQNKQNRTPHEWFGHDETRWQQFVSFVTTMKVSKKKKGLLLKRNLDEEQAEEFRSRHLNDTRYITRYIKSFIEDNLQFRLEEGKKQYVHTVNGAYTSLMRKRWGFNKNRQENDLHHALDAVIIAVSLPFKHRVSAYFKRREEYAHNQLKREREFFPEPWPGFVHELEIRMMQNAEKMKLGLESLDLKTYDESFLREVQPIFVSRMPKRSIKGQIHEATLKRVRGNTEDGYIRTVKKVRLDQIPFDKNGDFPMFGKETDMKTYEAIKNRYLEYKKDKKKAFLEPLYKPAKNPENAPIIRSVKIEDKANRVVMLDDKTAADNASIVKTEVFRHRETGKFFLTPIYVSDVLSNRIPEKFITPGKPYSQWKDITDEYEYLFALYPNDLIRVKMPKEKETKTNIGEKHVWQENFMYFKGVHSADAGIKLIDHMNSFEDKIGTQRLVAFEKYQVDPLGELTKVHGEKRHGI
Method: as §3

[4] = target: T4, LPG10167 (Bacillus toyonensis); assay: cell_activity; PAM nnnnCC; HEK293T
T4 chain: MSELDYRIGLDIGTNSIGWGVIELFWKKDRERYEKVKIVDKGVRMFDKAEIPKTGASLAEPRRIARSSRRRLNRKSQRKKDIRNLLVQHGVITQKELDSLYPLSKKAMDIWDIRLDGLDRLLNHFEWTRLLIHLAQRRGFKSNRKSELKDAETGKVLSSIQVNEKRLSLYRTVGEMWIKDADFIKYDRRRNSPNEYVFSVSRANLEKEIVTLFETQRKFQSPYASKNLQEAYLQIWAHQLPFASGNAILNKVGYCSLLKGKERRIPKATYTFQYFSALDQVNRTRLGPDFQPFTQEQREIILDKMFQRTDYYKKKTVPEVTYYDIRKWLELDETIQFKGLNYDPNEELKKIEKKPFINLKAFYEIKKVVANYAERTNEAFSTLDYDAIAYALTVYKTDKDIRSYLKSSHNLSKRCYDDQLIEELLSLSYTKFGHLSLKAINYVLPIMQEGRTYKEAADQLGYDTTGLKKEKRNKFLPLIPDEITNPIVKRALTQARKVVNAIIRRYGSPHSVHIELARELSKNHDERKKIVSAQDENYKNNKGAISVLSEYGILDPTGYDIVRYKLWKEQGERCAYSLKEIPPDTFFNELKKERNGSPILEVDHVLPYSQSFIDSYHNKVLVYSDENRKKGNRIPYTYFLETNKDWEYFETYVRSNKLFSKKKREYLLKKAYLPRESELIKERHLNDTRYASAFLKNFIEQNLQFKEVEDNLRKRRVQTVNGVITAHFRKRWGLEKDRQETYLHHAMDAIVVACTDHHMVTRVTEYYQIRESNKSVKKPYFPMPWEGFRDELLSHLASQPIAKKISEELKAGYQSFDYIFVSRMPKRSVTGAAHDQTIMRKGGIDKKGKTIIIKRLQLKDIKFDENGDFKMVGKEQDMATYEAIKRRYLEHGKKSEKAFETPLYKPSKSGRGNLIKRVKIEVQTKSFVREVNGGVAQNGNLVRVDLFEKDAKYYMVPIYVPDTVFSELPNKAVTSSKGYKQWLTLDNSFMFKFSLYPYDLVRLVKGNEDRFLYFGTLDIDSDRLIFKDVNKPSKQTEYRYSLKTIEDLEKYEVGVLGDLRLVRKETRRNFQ
Method: as §1, §2

B1: SGN003669 ; B2M target SGN003669 (ssRNA ; dsDNA)
RNA: UGACAGCAUUCGGGCCGAGAUGUCUGUCAUAGUUCCAUUAAAGCCAUUAAAGAAUGGCUUUGAUGUUUCUAUGAUAAGGGUUUCGGCCCGUGGCGUUGGGGAUCGCCUGCCCAUUUCAAUGGGCUUCUCCCCAUUU
DNA 1: TGACAGCATTCGGGCCGAGATGTCT
DNA 2: AGACATCTCGGCCCGAATGCTGTCA
- activity [1]: 3.68 % indels

B2: SGN005374 ; SGN005374 target (ssRNA ; dsDNA)
RNA: AGUAGCGCGAGCACAGCUAAGGCCAGCCAUAAUUCCUCCAAAGGGAGUUAUUAUGGUAAGGCAUUAUGCCGUGGCGUUGGGGAUCGCCUACAUCCGAUUAGAUCGGAUUCUCCCUAAAAAUGACUAACUUUGUUUAGUCAUUUUUUU
DNA 1: AGTAGCGCGAGCACAGCTAAGGCCA
DNA 2: TGGCCTTAGCTGTGCTCGCGCTACT
- activity [2]: 37.5 % indels

B3: SGN005374 ; SGN005374 target (LPG10208) (ssRNA ; dsDNA)
RNA: AGUAGCGCGAGCACAGCUAAGGCCAGCCAUAAUUCCUCCAAAGGGAGUUAUUAUGGUAAGGCAUUAUGCCGUGGCGUUGGGGAUCGCCUACAUCCGAUUAGAUCGGAUUCUCCCUAAAAAUGACUAACUUUGUUUAGUCAUUUUUUU
DNA 1: AGTAGCGCGAGCACAGCTAAGGCCA
DNA 2: TGGCCTTAGCTGTGCTCGCGCTACT
- activity [3]: 47.2 % indels

B4: SGN003667 ; B2M target SGN003667 (ssRNA ; dsDNA)
RNA: AAGAGAGAGUAGCGCGAGCACAGCUGUCAUAGUUCCAUUAAAGCCAUUAAAGAAUGGCUUUGAUGUUUCUAUGAUAAGGGUUUCGGCCCGUGGCGUUGGGGAUCGCCUGCCCAUUUCAAUGGGCUUCUCCCCAUUU
DNA 1: AAGAGAGAGTAGCGCGAGCACAGCT
DNA 2: AGCTGTGCTCGCGCTACTCTCTCTT
- activity [4]: 1.16 % indels

B5: SGN005382 ; SGN005382 target (ssRNA ; dsDNA)
RNA: CUCUCUUUCUGGCCUGGAGGCUAUCGCCAUAAUUCCUCCAAAGGGAGUUAUUAUGGUAAGGCAUUAUGCCGUGGCGUUGGGGAUCGCCUACAUCCGAUUAGAUCGGAUUCUCCCUAAAAAUGACUAACUUUGUUUAGUCAUUUUUUU
DNA 1: CTCTCTTTCTGGCCTGGAGGCTATC
DNA 2: GATAGCCTCCAGGCCAGAAAGAGAG
- activity [2]: 25.5 % indels

B6: SGN003668 ; B2M target SGN003668 (ssRNA ; dsDNA)
RNA: GGAGAGACUCACGCUGGAUAGCCUCGUCAUAGUUCCAUUAAAGCCAUUAAAGAAUGGCUUUGAUGUUUCUAUGAUAAGGGUUUCGGCCCGUGGCGUUGGGGAUCGCCUGCCCAUUUCAAUGGGCUUCUCCCCAUUU
DNA 1: GGAGAGACTCACGCTGGATAGCCTC
DNA 2: GAGGCTATCCAGCGTGAGTCTCTCC
- activity [1]: 0.61 % indels

B7: SGN005373 ; SGN005373 target (LPG10208) (ssRNA ; dsDNA)
RNA: UAGCCUCCAGGCCAGAAAGAGAGAGGCCAUAAUUCCUCCAAAGGGAGUUAUUAUGGUAAGGCAUUAUGCCGUGGCGUUGGGGAUCGCCUACAUCCGAUUAGAUCGGAUUCUCCCUAAAAAUGACUAACUUUGUUUAGUCAUUUUUUU
DNA 1: TAGCCTCCAGGCCAGAAAGAGAGAG
DNA 2: CTCTCTCTTTCTGGCCTGGAGGCTA
- activity [3]: 37.5 % indels
